Reference: the DeepSol protein solubility set

Assay: soluble on expression in E. coli; label from the status in PepcDB or PDB records

Sequence | soluble on expression in E. coli
MGHHHHHHDTDIPTTENLTFQGACRLVANCRDVRCRRLLRNVMPVAGSELPRRPLPPAAQERDAEPRPPHGELQYLGQIQHILRCGVRKDDRTGTGTLSVFGMQARYSLRDEFPLLTTKRVFWKGVLEELLWFIKGSTNAKELSSKGVKIWDANGSRDFLDSLGFSTREEGDLGPVYGFQWRHFGAEYRDMESDYSGQGVDQLQRVIDTIKTNPDDRRIIMCAWNPRDLPLMALPPCHALCQFYVVNSELSCQLYQRSGDMGLGVPFNIASYALLTYMIAHITGLKPGDFIHTLGDAHIYLNHIEPLKIQLQREPRPFPKLRILRKVEKIDDFKAEDFQIEGYNPHPTIKMEMAV | soluble
MKFIIEALKRVRERRPLVHNITNFVVMNTTANALLALGASPVMAHAEEELEEMIRLADAVVINIGTLDSGWRRSMVKATEIANELGKPIVLDPVGAGATKFRTRVSLEILSRGVDVLKGNFGEISALLGEEGKTRGVDSLEYGEEEAKKLTMNAAREFNTTVAVTGAVDYVSDGRRTFAVYNGHELLGRVTGTGCMVAALTGAFVAVTEPLKATTSALVTFGIAAEKAYEEAKYPGSFHVKLYDWLYRINENVIRTYAKVREVEL | soluble
SLSSKDKDTVKALWGKIADKAEEIGSDALSRMLAVYPQTKTYFSHWKDLSPGSAPVNKHGKTIMGGIVDAVASIDDLNAGLLALSELHAFTLRVDPANFKILSHCILVLLAVKFPKDFTPEVHISYDKFFSALARALAEKYR | soluble
MGSDKIHHHHHHMSDPIPAAPTDNGVPVSLRSSRGRGWHGFGASLLEIRAGTYRIPAAEHHRIGVHIGSPVRADCVCDGARVSRIQAHGDVDVIPAGLPGEWTDSADCRILHIALSDTFVRRTFDQLELKPSQAQIRRRLQVRDPRLQHIAWAMAAELEAEDASDPLYAESLCTALVARLADSQPAFREHRRTLAPKAAARVIDYVEANLERRMTLAELAALVSISVPHFKVLFRETLGMPVHQYVVRRRVERAKALLLEGRLGISQIALEAGFAHQSHMAHWMNRVLGATPTEIARSGARGGLRLAYDGEDR | not soluble
GPGSMLVDRLQLSCEGTTTAGFTPLLEQFDKGTATQERGAEERAEGNLTPLRVYFRNKRHSLWGHRLWNAAKYMVKRMDSRMIDVRGKTVLELGAGLGVPSLAAFRNGARCVVATDYPDGDLLEILEMNVKANCRADLIDADAAAFLLQEAERLKLAQGYEKSGETVFSEAERQRALSTRCVVEPLLWGKQEHIQKVMSYTGGGGFDIVLLSDILFNHVCNDDLADTIVRVLQRSQHAAAYCVFSHHRAHKQVEDLEFFDKCVARGLRFEQVDEENYPMMFPDDSGPAEIRQPVKTYKIVHYFDDAGMAFQPGNDVFDVVIQGTGMVESIVSAALARSGIRVLHCDGEDDYGGAFKTMTVERMREYITGPLPASLDGAADNRDGRGDHEENHPRCNDGVIAVDRMDELKLHERRSFLLDLLPTHNLSNGETVRQLITSDMARHME | not soluble
MGSDKIHHHHHHMEVERLSLKEFCDMVAERKPTPGGGAVGSVVGAMACALAEMVANFTRKKKGYEDVEPEMERIVEAMEEARLKLFDLAKKDMEAFEKVMKAYKSSEGELQNALKEAASVPMDVIRVMKDLAHELEKLAEFGNKNLASDTLNAADLCHAVFQVEKVNVLINLKEISDETFRKNMLEELEEQEAQIEGCYQRVKKMLEGIVWSSK | soluble
MTNDTNITNDKDINANIAHDDHFNDSIVNEVILEDMKKNRIDHMKYLPDMEVLDSDIMDRVVAEMDAYDYDQYTAADVRAALSHEYRTLEDFKALLSPAAQPFIEEIAQAAQLETRKHFGNSVCMFTPLYISNYCENYCIYCGFNCHNKINRAKLNASEIEKEMAAIAKTGLQEILILTGESKKMSDVEYIGEACKIARKYFKVIGLEVYPMNSDEYAYLHECGADYVTVFQETYNSDKYETLHLAGHKRIFPYRVNAQERALKGGMRGVGFAALLGLDDFRKDALATGYHAYLLQKKYPRAEIAFSCPRLCPIINNDRINPKDVHETQLLQVVCAYRLFMPFASITISTREVARVRDNLVNIAATKISAGVSTGIGSHVDDIEDKGDDQFEISDGRSVDEVFNALLDNGLQPVMSDYIYV | not soluble
MKRRESSPLISTILGIRYGRCVMGNFSIVIPTYNERDNIVKLVEEINRIVPYNSRILIVDDNSPDGTALILQELNIHNLTVLIRHNERGLGSALRYGISKAIELESDFIVTMDADFSHNPKYLPEMMKIALNENCDLVIGSRYVIGGGIENWSLSRRIISKGANYLFKLVSHSPIMDNTSNYRIYSRRAALLALECDTTNGYEFQICSIFKIIRNNLKIKEYPIIFVDRKTGKSKLNLKEILNWFLYIIRLSLSFLEHHHHHH | not soluble
MKDKVYKRPVSILVVIYAQDTKRVLMLQRRDDPDFWQSVTGSVEEGETAPQAAMREVKEEVTIDVVAEQLTLIDCQRTVEFEIFSHLRHRYAPGVTRNTESWFCLALPHERQIVFTEHLAYKWLDAPAAAALTKSWSNRQAIEQFVINAA | soluble
MNTPHPSAPVLVAVANPTIHPEALHIVAATGRECIDTTDPREISRHAHRVAAMLVDATTAPHMASLPPNTRVMYLEPEPGPIDYEKAMKSGAELAVIVPAQSPELLKALGRRDVAPRAGKYPVIAVIGAAGGAGTSTLCAALAADYREALLIDTEHFSGGIDLLLGKEDDPGIRWDDVPDSGEKVPASELLASLPCVDPNVRILAATRDSVTHVAEQQLRGVVESVRGTCPIIIDVQRHHVLFESCVDLADLVVLLVPAEIRSVAAAAQLVPWLRRRKVDVVGVLRERAWASVDREEVARVTGADIVATVPTVKGLPREVELGGMATIPRALRRPLAQLRSHIDG | not soluble
MSLSIKLIAVDIDGTLVNSQKEITPEVFSAIQDAKEAGVKVVIATGRPIAGVAKLLDDLQLRDQGDYVVTFNGALVQETATGHEIISESLTYEDYLDMEFLSRKLGVHMHAITKDGIYTANRNIGKYTVHESTLVSMPIFYRTPEEMAGKEIVKCMFIDEPEILDAAIEKIPAEFYERYSINKSAPFYLELLTKNVDKGSAITHLAEKLGLTKDETMAIGDEENDRAMLEVVGNPVVMENGNPEIKKIAKYITKTNDESGVAHAIRTWVLEGHHHHHH | soluble
MGSDKIHHHHHHMAILQLGMAFDADAFSASVIGIAADVGSHDSGVHRHGKGQLLYAPQGCITFAWEDAIGILPPTKAVWIPPHTPHRAVMTNVVAYRSLYFDCSRIVAPASVTMVDVNPLLKALIDKMAFWPWDTPEASMTHSCALFWEEFYAARCHSFRLTIPVDRRFHGFRQQLFRPEFLPPDIDSLAATIGASTKTVTRLFKRDTGMSYQEWRQQWRLLKAIELLSGALPVSEVGFRLGFSSDSAFIAFFRKQTGKTPRHFMQG | not soluble
MSAQKPGLHPRNRHQHRYDLAALCQTTPELTSFLIRTPAGEQSVDFANPQAVKALNKALLAHFYAVTHWDIPPGFLCPPVPGRADYIHHLADLLGETTGSIPAQATILDVGVGANCIYPLIGVHEYGWRFTGSEVSDAAMSSAQAIIQANTGLSRAIRLRRQKDPAAIFTGIIHKNEFYDATLCNPPFHDSAAAARAGSERKRRNLGQNKDDALNFGGQQQELWCEGGEVAFIKKMIAESQTFRRQVLWFTTLVSRGENLPPLYRALTEAGAVKVVKKEMAQGQKQSRFIAWTFMDDDQRRRFITRKRLEHHHHHH | soluble
SSFFGFGQTAEIDIVLNDAETRKKVEHKTEDGKKDKYFLFYDGETVSGKVNVTLKTPGKRLEHYGIKIEFVGQIELYYDRGNHHEFVSLVKDLARPGELSQSQTFDFELTHVEKPYESYTGQNVKLRYFLRATISRRLNDISKEMDIVVQTLCTYPEINSSIKMEVGIEDCLHIEFEYNKSKYHLRDVIVGKIYFLLVRIKIKHMEIDIIKRETTGTGPSVYHENDTIAKYEIMDGAPVRGESIPIRLFLAGYEMTPTMRDINKKFSVRYYLNLVLIDEEERRYFKQQEITLWRKGDIVRRSMSQQATIAAQRYEGSNPEPTSAQAKEETD | soluble
GFRWASNATFTLNRNKVKRLAGGSTNPVTGELIDMPNMPVGWLGKENVAPRVILTEGGTMTDIYVYNELTKDNNGNIKVDAQTGGLSMHTAETPTKVGNLNANYNLGWTNNFTYKGINLGVVLSARVGGLAYSATQGVLDYYGVSSITANARDNKGVPMNNGKVDTQKYYQTIGTGEGGYGRYYLYSATNVRLQELSLSYTLPKKWLNNVANVTFGLVGRNLWMIYCKAPFDPELSASTSSNYYMNVDYFMQPSMRNIGFNVKVQF | not soluble
